Experimental data published in the supplement of paper PMC9170038.

System: MS2 coat protein
Experiment: apparent KD of MS2 coat protein; designed switch direction (-1 OFF switch, 1 ON switch): -1; higher = weaker reporter binding
Summary of the method: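 Three titration conditions were used: no input, 200 uM small-molecule ligand, and an oligonucleotide input. In each, SNAP-549-labelled MS2 coat protein was raised from 0.7 or 1.5 nM, doubling, to 3 µM over designed RNA switches transcribed on Illumina chips by stalled E. coli RNA polymerase. Curve fits of normalised cluster fluorescence gave values whose per-design median over clusters is the apparent KD.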

[1] = Eterna round: R95, input ligand: microRNA oligo, concentration not stated
[2] = input ligand: microRNA oligo, concentration not stated
[3] = Eterna round: R95, input ligand: FMN 200 uM
[4] = Eterna round: R95, input ligand: none

Sequence | apparent KD of MS2 coat protein (input ligand: FMN 200 uM) | apparent KD of MS2 coat protein (input ligand: none) | apparent KD of MS2 coat protein [1] | apparent KD of MS2 coat protein [2] | apparent KD of MS2 coat protein [3] | apparent KD of MS2 coat protein [4]
GCACAUGCAGGAUAUGUAAAAUUUGACAUGAGGAUCACCCAUGUAGAUCCUGAAUUUCCUGCAGAAGGGCAUGUGC [Mat - Exclusion 5 - Eli Mod - D17] (Eterna round: R97, puzzle: Exclusion 5) | 345 nM | 98.8 nM | – | – | – | –
GGUUGGCGAGGAUAUACAUGAGGAUCACCCAUGUGAGAGAUACUAGUGAGGUCGAUUGGUAGAAGGCGCUGACA [Mat - Exclusion 3 - Mod of JL D78] (puzzle: Exclusion 3) | – | – | 114 nM | – | – | –
UGUUUGUCAGGAUAUGCUAGUGCUAGUGAAAGCUAGUGCUAGUAGAAGGGACAUGAGGAUCACCCAUGUGAACG [-27.1, -27 kcal, A 26%, 2bis-(ca)2] (Eterna round: R97, puzzle: Exclusion 4) | 117 nM | 54.1 nM | – | – | – | –
AUUCCCGGUGUUAGGAUAUCCAACGCCCACGCGAUGGAGAAGGGACAUGAGGAUCACCCAUGUAGAGCUGCAUC [Aredan] (puzzle: Brourd's mod of Exclusion 4) | – | – | 11.7 nM | – | – | –
AACGCGUCAGGAUAUAGCGAAACUUAGGUAGUACAACCAUACUAGAAGGGACAUGAGGAUCACCCAUGUGGGUA [JR_Exc004_Sub210] (Eterna round: R96, puzzle: Exclusion 4) | 171 nM | 142 nM | – | 104 nM | – | –
CCGUGGCAAGGAUAUACAUAGGAGAGGAAGGCAAGAGGUGGACAUGAGGAUCACCCAUGUAGAAGGUGCAGAUC [JR_Exclu2_Sub027] (puzzle: Exclusion 2) | – | – | 157 nM | – | – | –
GAUUAUGCGAGCUUUAGGGACAUGAGGAUCACCCAUGUUCGUCUUAUUAGUCUAGAUACACUGACAUACCUAAAUCU [JMF 57] (puzzle: Sensor v3, turn-off variant 1) | – | – | 18.2 nM | – | 14.5 nM | 13.8 nM
AUUUUAUAUGAAGGAUAUACUUAACAUGAGGAUCACCCAUGUGGUGUUGUGAGUGAGUGAGUUUAGUAGAAGGUCAAUGAUUUU [JMF's solution 76] (Eterna round: R96, puzzle: Exclusion NG 2) | 828 nM | 327 nM | – | 527 nM | – | –
AAAAGUUAAGGAUAUACUUGAGGAUCACCCAAGUAGGUGGCUUCAGCCGGAAACCGGCGUAGAAGGUAGCAGAA [Laentezabe] (Eterna round: R97, puzzle: Exclusion 3) | 54.9 nM | 56.3 nM | – | – | – | –
CAUUAUUAUCGAGGAUAUCCUAUUGAAAUUCUGGGAGAAGGCGGACUCAACAUGAGGAUCACCCAUGUGGGACGGAUGCUAGGG [Ex NG1 #28] (Eterna round: R96, puzzle: Exclusion NG 1) | – | – | – | 17.5 nM | – | –
UUUAGUUCAGGAUAUGUAGAUUUUAACAUGAGGAUCACCCAUGUAGAUCCUGAAUUAACUACAGAAGGGAACAUUU [Exclusion 5: 2:a] (Eterna round: R96, puzzle: Exclusion 5) | 94.3 nM | 24.3 nM | – | 20.2 nM | – | –
AAUAUACUAGGAUAUACAUGAGGAUCACCCAUGUCCGCAUAUUGGGAUCUUAGACCUUGUAGAAGGAGUGGACG [Eternabot (L2) Solution 15] (Eterna round: R97, puzzle: Exclusion 3) | 99.2 nM | 97.6 nM | – | – | – | –
AUAAUUAAUCGAGGAUAUCAGCACGUGUAGUGCUGAGAAGGCGACAUGAGGAUCACCCAUGUGAUCAAUUAAUAUUAAUAUUAU [ENG1/11-C3] (Eterna round: R96, puzzle: Exclusion NG 1) | 1330 nM | 866 nM | – | 565 nM | – | –
ACAUGAGGAUCACCCAUGUGAAAACAAUGGCUGACAAAGAGAUAGGAUAUAUGUGCAUAUCAAACAUAGAAGGGUCAUUACUGG [Deportation 87 - Jieux - Exclusion NG 3] (Eterna round: R96, puzzle: Exclusion NG 3) | 42.7 nM | 49.8 nM | – | 42.5 nM | – | –
ACCUCACAUGAGGAUCACCCAUGUCAGGAUAUCUUUUAAACCGCGAAUCGCGGCGCUGAGAGAAGGGACAUUAA [EX1 #20] (Eterna round: R97, puzzle: Exclusion 1) | 108 nM | 39.4 nM | – | – | – | –
ACGUGAUAUCUGUCGGUGGACAUGAGGAUCACCCAUGUGAGCUUUUUGCUCGUCUUAUAACCCGAUGACAGACCUUC [Anorin] (puzzle: Sensor v3, turn-off variant 1) | – | – | 266 nM | – | 14.2 nM | 13 nM
GUGCUGGUAGGAUAUACAUGAGGAUCACCCAUGUGGCGUGACUCCUAUGGCAGCGCCGGUAGAAGGAUUAGAAG [Eternabot (L1) Solution 60] (Eterna round: R97, puzzle: Exclusion 3) | 188 nM | 261 nM | – | – | – | –

Sequence | apparent KD of MS2 coat protein (input ligand: FMN 200 uM) | apparent KD of MS2 coat protein (input ligand: none) | apparent KD of MS2 coat protein [1] | apparent KD of MS2 coat protein [2] | apparent KD of MS2 coat protein [3] | apparent KD of MS2 coat protein [4]
GAGUAGAGAGGAUAUGCAAUGAUCAUCGUACGAUGAGGCUGACAUGAGGAUCACCCAUGUAGAAGGCUCUGAUC [EX2 #19] (Eterna round: R97, puzzle: Exclusion 2) | 22.1 nM | 30.7 nM | – | – | – | –
UACAUGAGGAUCACCCAUGUUUUGUCGUGUAUGGUAUUUAUCUAGGAUAUCAAUCUAUGUAUUUAUGAGAAGGAGAAUAUUAAU [JMF's solution 51] (Eterna round: R96, puzzle: Exclusion NG 3) | – | – | – | 31 nM | – | –
UCUGCCGCCGUGAGGAUAUGCCCGCGCAAACGCGGGCAGAAGGCACAUGAGGAUCACCCAUGUCCCGCGGUUUU [salish99_bmx4_r4_133] (Eterna round: R97, puzzle: Brourd's mod of Exclusion 4) | 38.7 nM | 18.3 nM | – | – | – | –
AGAGACCGAGGAUAUACAUGAGGAUCACCCAUGUUGUUAGGUGAUGGAUUAAUGAUUGGUAGAAGGCGGAGAGA [Seems to work] (Eterna round: R97, puzzle: Exclusion 3) | 340 nM | 227 nM | – | – | – | –
AAAAUGUGAGGAUAUCACGGAGCCUCGCAUGACGAGACUCCUGAGAAGGCACAUGAGGAUCACCCAUGUCCUGU [EX4 A.10] (Eterna round: R97, puzzle: Exclusion 4) | 382 nM | 57 nM | – | – | – | –
ACUAGUCAUGAGGAUAUGCGAGCCAACGGGCGAGCAGAAGGCGUGACAUGAGGAUCACCCAUGUCAGUUCGCGA [eternacac ex6r4 sub31] (Eterna round: R97, puzzle: Exclusion 6) | 21.9 nM | 17.4 nM | – | – | – | –
CGCAACGCAAGAGGAUAUGUUGGACAUGAGGAUCACCCAUGUAAAAUUGGCGAAACGCAUAUCCAGUAGAAGGCUUCCGAGCAA [Eternabot solution 15] (Eterna round: R96, puzzle: Exclusion NG 2) | 34.6 nM | 24.1 nM | – | 15.9 nM | – | –
AGGUGUAGAGGAUAUCCAUCCUCCCACAUGAGGAUCACCCAUGUCCUGGUCACCAAGGACGGAGAAGGCUACACCA [Omei Ex5 D21] (Eterna round: R97, puzzle: Exclusion 5) | 108 nM | 142 nM | – | – | – | –
GUGUACAGAGGAUAUGCUUGAAUCUAGCGAAGCUAGGUUCGACAUGAGGAUCACCCAUGUAGAAGGCUGUACAC [Dot plot directed A v3] (puzzle: Exclusion 2) | – | – | 13.4 nM | – | – | –
AGCUAGAUAGGAUAUGCCCGGGAUAACAUGAGGAUCACCCAUGUGGCCGAAUCAUGUCCAGCAGAAGGGUUUGGGA [Mod of ViennaUCT 10 - Jieux - Exclusion 5] (Eterna round: R97, puzzle: Exclusion 5) | 18.2 nM | 17 nM | – | – | – | –
GGGUAGUUAGGAUAUCAGACUAGCUGCUCAACAGCAGCAGCUGAGAAGGGACUUGAGGAUCACCCAAGUGGAAG [Ceisis] (Eterna round: R97, puzzle: Exclusion 4) | 64.9 nM | 70.1 nM | – | – | – | –
AAAUUGGUAGAGGAUAUCGUACAGGAAACACUGCGAGAAGGCUGCACAUGAGGAUCACCCAUGUUCAGUUGCGA [EX6 #39] (Eterna round: R97, puzzle: Exclusion 6) | 17.3 nM | 14.5 nM | – | – | – | –
GCUGGUCGAGGAUAUACAUGAGGAUCACCCAUGUGGUCACGUGACUUCGGUCACGAAUGUAGAAGGCGACCAGC [E3/3-A4] (Eterna round: R97, puzzle: Exclusion 3) | 65.8 nM | 610 nM | – | – | – | –
GCCGCGCGAGGAUAUACAUGAGGAUCACCCAUGUGAAAUUAUAGUGAGGAAAUGAAAAGUAGAAGGCGCGCGGA [Mod of Mat 19 - Jieux - Exclusion 3] (Eterna round: R97, puzzle: Exclusion 3) | 258 nM | 37 nM | – | – | – | –
UGACUUCAUAUCACAUGAGGAUCACCCAUGUUAUUCAUCGCGUAGGAUAUCGAGGUUUAUUAUUACGAGAAGGACGUAUUGAUA [JR_ExcNG3_Sub074] (Eterna round: R96, puzzle: Exclusion NG 3) | 61.1 nM | 40.7 nM | – | 34.5 nM | – | –
ACAUGAGGAUCACCCAUGUCCGGCUGGUCUGGUCCGGCUGUCGAGGAUAUAGUCCGGUGUUCGCGCUAGAAGGCGAGGGCUGGA [Aenatbe mod 49] (Eterna round: R96, puzzle: Exclusion NG 3) | 109 nM | 97.5 nM | – | 68.3 nM | – | –
ACACAAGCCCUUUGCUCGUUUUAAUACAGCGGGCUCUCCACAUGAGGAUCACCCAUGUAGGCCUUGUUCCAAGGCCG [Maerarce] (puzzle: Sensor v3, turn-off variant 2) | – | – | 22.3 nM | – | 22.6 nM | 21.8 nM
